Test results published in patent US20240050432A1 (Infinity Pharmaceuticals, Inc., priority 2020, published 2024).
Like-named read-outs stand apart in the source and are kept apart here.

Columns and labels:
[1] = system: advanced urothelial carcinoma; test: Phase 2 randomized study of eganelisib + nivolumab vs nivolumab: response, PFS, OS; assay type: in vivo, human; conditions: for Median PFS: preliminary PFS
Source text: (§1) Methods: Eligible patients (pts) with mUC who progressed on >1 platinum-based chemotherapy regimen and were CPI naïve were enrolled. […] Pts were stratified by baseline circulating monocytic myeloid derived suppressor cells (mMDSC) level. The primary endpoint was objective response rate (ORR) per RECIST v1.1 in pts with high baseline mMDSC levels. Other endpoints included ORR, progression free survival (PFS) and overall survival (OS) in all pts, PD-L1+/−pts and pts with hepatic adverse events (AE).
Advanced platinum refractory 2nd line urothelial cancer patients: Inclusion/exclusion criteria per CheckMate-275; MDSC* all corners (stratified); PD-L1** status all corners (non-stratified). • * Circulating mMDSC levels measured in baseline peripheral blood samples based on a Clinical Laboratory Improvement Amendments (CLIA)-certified flow cytometry assay (low [<22.3%] or high [≥22.3%] or ≥/<the median MDSC level of patients in this trial) • ** PD-L1 expression measured in baseline/archival tumor biopsies with Dako PD-L1 immunohistochemical 28-8 pharmDx kit approved for nivolumab in UC, except 2 biopsies tested with 22C3 PD-L1 antibody prior to study (Tumor Proportion Score≥1% cutoff for PD-L1 (+)) • Primary objective: ORR in MDSC High • Secondary objectives: ORR, TTR, DOR, and PFS in total population+MDSC subsets; safety; PK • Exploratory objectives: safety and efficacy in biomarker subsets, including PD-L1; OS
(§2) The dose for nivolumab is 480 mg Q4W.

[2] = Phase 2 urothelial carcinoma study: adverse events; assay type: in vivo, human
Source text: as §1, §2

[3] = system: metastatic urothelial carcinoma (mUC); conditions: CheckMate-275, cited from earlier work
interferon gamma pathway = test: Peripheral blood gene set enrichment, day 15 vs. day 0; assay type: in vivo, human
Source text: (§3) In all patients (day 15 vs. day 0): interferon gamma pathway: ES=0.81, p<0.01 (combination, n=31) vs. ES=0.51, p=0.28 (nivolumab, n=14); interferon alpha pathway: ES=0.87, p<0.01 (combination, n=31) vs. ES=0.53, p=0.39 (nivolumab, n=14). In PD-L1 negative patients (day 15 vs. day 0): interferon gamma pathway: ES=0.82, p<0.01 (combination, n=21) vs. ES=0.55, p=0.15 (nivolumab, n=5); interferon alpha pathway: ES=0.88, p<0.01 (combination, n=21) vs. ES=0.53, p=0.35 (nivolumab, n=5).

interferon alpha pathway = test: as above; assay type: in vivo, human
Source text: as §3

[4] = snapshot Jun. 26, 2021, PD-L1 negative patients
[5] = snapshot Jun. 26, 2021, all patients
[6] = preliminary analysis, N=33 vs N=16
[7] = preliminary analysis, N=33 vs N=16, 1 Grade 4
[8] = snapshot Jun. 26, 2021, N=33 vs N=16
[9] = PD-L1 negative patients, n=21 vs n=5

Nivolumab + Placebo: placebo with nivolumab (PN), active control arm
patients with reduction of tumor burden ([1]; PD-L1(−) patients, best change of target lesion): 17% | Median PFS ([1]; ITT): 8.5 wks | Median PFS ([1]; PD-L1(+)): 16.4 wks | Median PFS ([1]; PD-L1(−)): 7.9 wks | patients for whom durability of OS benefit continued to mature ([1]; snapshot Jun. 26, 2021): 18% | median OS (mOS) [1, 4]: 7.9 months | median OS (mOS) [1, 5]: 7.9 months | asthenia, all-Gr AE ([2]; first 49 pts (33 EN, 16 PN)): 31% | hepatotoxicity, Gr≥3 AE ([2]; first 49 pts (33 EN, 16 PN)): 0% | pruritis, all-Gr AE ([2]; first 49 pts (33 EN, 16 PN)): 6% | pyrexia, all-Gr AE ([2]; first 49 pts (33 EN, 16 PN)): 0% | rash, Gr≥3 AE ([2]; first 49 pts (33 EN, 16 PN)): 0% | rash, all-Gr AE ([2]; first 49 pts (33 EN, 16 PN)): 6% | transaminase elevation, Gr≥3 AE ([2]; first 49 pts (33 EN, 16 PN)): 6% | transaminase elevation, all-Gr AE ([2]; first 49 pts (33 EN, 16 PN)): 6% | Aspartate aminotransferase increased, Grade≥3 TEAE, Related to Eganelisib (Placebo in control arm) [2, 6]: 0 n (%) | Aspartate aminotransferase increased, Grade≥3 TEAE, Related to Nivolumab [2, 6]: 0 n (%) | Asthenia, TEAE, All Causality [2, 6]: 4 (25.0) n (%) | Asthenia, TEAE, Related to Eganelisib (Placebo in control arm) [2, 6]: 2 (12.5) n (%) | Asthenia, TEAE, Related to Nivolumab [2, 6]: 1 (6.3) n (%) | Decreased appetite, TEAE, All Causality [2, 6]: 4 (25.0) n (%) | Decreased appetite, TEAE, Related to Eganelisib (Placebo in control arm) [2, 6]: 1 (6.3) n (%) | Decreased appetite, TEAE, Related to Nivolumab [2, 6]: 0 n (%) | Disease progression, Grade≥3 TEAE, All Causality [2, 6]: 6 (37.5) n (%) | Disease progression, Grade≥3 TEAE, Related to Eganelisib (Placebo in control arm) [2, 6]: 0 n (%) | Disease progression, Grade≥3 TEAE, Related to Nivolumab [2, 6]: 0 n (%) | Disease progression, TEAE, All Causality [2, 6]: 6 (37.5) n (%) | Disease progression, TEAE, Related to Eganelisib (Placebo in control arm) [2, 6]: 0 n (%) | Disease progression, TEAE, Related to Nivolumab [2, 6]: 0 n (%) | Hepatotoxicity, Grade≥3 TEAE, Related to Eganelisib (Placebo in control arm) [2, 6]: 0 n (%) | Hepatotoxicity, Grade≥3 TEAE, Related to Nivolumab [2, 6]: 0 n (%) | Pruritus, TEAE, All Causality [2, 6]: 1 (6.3) n (%) | Pruritus, TEAE, Related to Eganelisib (Placebo in control arm) [2, 6]: 0 n (%) | Pruritus, TEAE, Related to Nivolumab [2, 6]: 0 n (%) | Pyrexia, TEAE, All Causality [2, 6]: 0 n (%) | Pyrexia, TEAE, Related to Eganelisib (Placebo in control arm) [2, 6]: 0 n (%) | Pyrexia, TEAE, Related to Nivolumab [2, 6]: 0 n (%) | Rash, TEAE, All Causality [2, 6]: 1 (6.3) n (%) | Rash, TEAE, Related to Eganelisib (Placebo in control arm) [2, 6]: 0 n (%) | Rash, TEAE, Related to Nivolumab [2, 6]: 0 n (%) | Aspartate aminotransferase increased, Grade≥3 TEAE, All Causality [2, 7]: 1 (6.3) n (%) | Hepatotoxicity, Grade≥3 TEAE, All Causality [2, 7]: 0 n (%) | Anemia, Grade≥3 TEAE, All Causality [2, 8]: 1 (6.3) n (%) | Anemia, Grade≥3 TEAE, Related to Eganelisib (Placebo in control arm) [2, 8]: 0 n (%) | Anemia, Grade≥3 TEAE, Related to Nivolumab [2, 8]: 0 n (%) | Aspartate aminotransferase increased, Grade≥3 TEAE, All Causality [2, 8]: 1 (6.3) n (%) | Aspartate aminotransferase increased, Grade≥3 TEAE, Related to Eganelisib (Placebo in control arm) [2, 8]: 1 (6.3) n (%) | Aspartate aminotransferase increased, Grade≥3 TEAE, Related to Nivolumab [2, 8]: 1 (6.3) n (%) | Asthenia, TEAE, All Causality [2, 8]: 5 (31.3) n (%) | Asthenia, TEAE, Related to Eganelisib (Placebo in control arm) [2, 8]: 2 (12.5) n (%) | Asthenia, TEAE, Related to Nivolumab [2, 8]: 1 (6.3) n (%) | Decreased appetite, TEAE, All Causality [2, 8]: 5 (31.3) n (%) | Decreased appetite, TEAE, Related to Eganelisib (Placebo in control arm) [2, 8]: 1 (6.3) n (%) | Decreased appetite, TEAE, Related to Nivolumab [2, 8]: 0 n (%) | Disease progression, Grade≥3 TEAE, All Causality [2, 8]: 4 (25.0) n (%) | Disease progression, Grade≥3 TEAE, Related to Eganelisib (Placebo in control arm) [2, 8]: 0 n (%) | Disease progression, Grade≥3 TEAE, Related to Nivolumab [2, 8]: 0 n (%) | Disease progression, TEAE, All Causality [2, 8]: 4 (25.0) n (%) | Disease progression, TEAE, Related to Eganelisib (Placebo in control arm) [2, 8]: 0 n (%) | Disease progression, TEAE, Related to Nivolumab [2, 8]: 0 n (%) | Hepatotoxicity, Grade≥3 TEAE, All Causality [2, 8]: 0 n (%) | Hepatotoxicity, Grade≥3 TEAE, Related to Eganelisib (Placebo in control arm) [2, 8]: 0 n (%) | Hepatotoxicity, Grade≥3 TEAE, Related to Nivolumab [2, 8]: 0 n (%) | Pruritus, TEAE, All Causality [2, 8]: 1 (6.3) n (%) | Pruritus, TEAE, Related to Eganelisib (Placebo in control arm) [2, 8]: 0 n (%) | Pruritus, TEAE, Related to Nivolumab [2, 8]: 0 n (%) | Pyrexia, TEAE, All Causality [2, 8]: 0 n (%) | Pyrexia, TEAE, Related to Eganelisib (Placebo in control arm) [2, 8]: 0 n (%) | Pyrexia, TEAE, Related to Nivolumab [2, 8]: 0 n (%) | Rash, TEAE, All Causality [2, 8]: 1 (6.3) n (%) | Rash, TEAE, Related to Eganelisib (Placebo in control arm) [2, 8]: 0 n (%) | Rash, TEAE, Related to Nivolumab [2, 8]: 0 n (%) | Discontinued treatment: Adverse event, unrelated to treatment ([2]; snapshot Jun. 26, 2021, of discontinued patients): 0 n

nivolumab
overall survival probability at one year landmark [1, 4]: 17% | overall survival probability at one year landmark [1, 5]: 32% | Median OS (95% CI) ([3]; All (n = 270)): 8.6 (6.1-11.3) mo. | Median PFS (95% CI) ([3]; All (n = 270)): 1.9 (1.9, 2.3) mo. | ORR (95% CI) ([3]; All (n = 270)): 20 (16-26) % | Median OS (95% CI) ([3]; PD-L1 < 1% (n = 146)): 6.0 (4.4-8.1) mo. | Median PFS (95% CI) ([3]; PD-L1 < 1% (n = 146)): 1.9 (1.7, 2.0) mo. | ORR (95% CI) ([3]; PD-L1 < 1% (n = 146)): 16 (10-23) % | Median OS (95% CI) ([3]; PD-L1 ≥ 1% (n = 124)): 11.9 (9.1-19.1) mo. | Median PFS (95% CI) ([3]; PD-L1 ≥ 1% (n = 124)): 3.5 (1.9, 3.7) mo. | ORR (95% CI) ([3]; PD-L1 ≥ 1% (n = 124)): 26 (18-34) % | gene set Enrichment Score (ES), interferon gamma pathway (interferon gamma pathway; [9]): 0.55 | gene set Enrichment Score (ES), interferon gamma pathway (interferon gamma pathway; all patients, n=31 vs n=14): 0.51 | gene set Enrichment Score (ES), interferon alpha pathway (interferon alpha pathway; [9]): 0.53 | gene set Enrichment Score (ES), interferon alpha pathway (interferon alpha pathway; all patients, n=31 vs n=14): 0.53
